{
  "source": "the nanobody polyreactivity screen of Harvey et al. (2022)",
  "data": [
    {"assay": "yeast display, Sf9 membrane polyspecificity reagent, FACS + sequencing; frameworks hold sequencing errors", "method_in_brief": "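After 36–48 hours of galactose induction, yeast (Saccharomyces cerevisiae BJ5465) displaying a synthetic nanobody library were stained at 4 °C for 1 hour with 10% biotinylated, detergent-solubilized Sf9 membrane reagent. Streptavidin microbeads enriched the stained cells before FACS sorting into low and high (top ~1%) gates on anti-HA and streptavidin fluorescence. Each clone's polyreactivity label reflects its gate of origin.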", "values": [
      {"sequence": "QVQLVESGGGLVQAGGSLRLSCAASGFTSRYYAMGWYRQAPGKERELVAAISSSGGRTYYADSVKGRFTISRDNAKNTVYLQMNSLKPEDTAVYYCNTGIHARYGGLYGYWGQGTQVTVSS", "polyreactivity (PSR sort gate)": "high polyreactivity"},
      {"sequence": "QVQLVESGGGLVQAGGSLRLSCAASGFTTAYAMGWYRQAPGKERELVAAISSGGSTYYADSVKGRFTISRDNAKNTVYLQMNSLKPEDTAVYYCATGPYYGYDEFDYWGQGTQVTVSS", "polyreactivity (PSR sort gate)": "low polyreactivity"},
      {"sequence": "QVQLVESGGGLVQAGGSLRLSCAASGFTTRSYAMGWYRQAPGKERELVAAISFSGGRTYYADSVKGRFTISRDNAKNTVYLQMNSLKPEDTAVYYCNARAYTRYSLLDYWGQGTQVTVSS", "polyreactivity (PSR sort gate)": "high polyreactivity"},
      {"sequence": "QVQLVESGGGLVQAGGSLRLSCAASGFTVGYAMGWYRQAPGKERELVAAITRGGGTRTSYADSVKGRFTISRDNAKNTVYLQMNSLKPEDTAVYYCAARRWWSPRTQYDYWGQGTQVTVSS", "polyreactivity (PSR sort gate)": "high polyreactivity"},
      {"sequence": "QVQLVESGGGLVQAGGSLRLSCAASGFTYFYYAMGSYRQAPGKERELVASISWSGGSTYYADSVKGRFTISRDNAKNTVYLQMNSLKPEDTAVYYCAADVPFGGDYWGQGTQVTVSS", "polyreactivity (PSR sort gate)": "low polyreactivity"},
      {"sequence": "QVQLVESGGGLVQAGGSLRLSCAASGFTYYWNAMGWYRQAPGKERELVAAINWRGTSTYYADSVKGRFTISRDNAKNTVYLQMNSLKPEDTAVYYCNTYGYVEYDWGQGTQVTVSS", "polyreactivity (PSR sort gate)": "high polyreactivity"},
      {"sequence": "QVQLVESGGGLVQAGGSLRLSCAASGFYLNAMGWYRQAPGKERELVATITSSATNTYYADSVKGRFTISRDNAKNTVYLQMNSLKPEDTAVYYCNARYTSHTHADGVYLYDYWGQGTQVTVSS", "polyreactivity (PSR sort gate)": "low polyreactivity"},
      {"sequence": "QVQLVESGGGLVQAGGSLRLSCAASGGIFAANAMGWYRQAPGTERELVAAITSVGSTYADSVKGRFTISRDNAKNTVYLQMNSLKPEDTAVSYCAADTESVIVWYEDDYWGQGTQVTVSS", "polyreactivity (PSR sort gate)": "low polyreactivity"},
      {"sequence": "QVQLVESGGGLVQAGGSLRLSCAASGGIFAIYAMGWYRQAPGKEREFVATISWRGGSTYYADSVKGRFTISRDNAKNTVYLQMNSLKPEDTAVYYCAAPHFSYSGGTHDYWGQGTQVTVSS", "polyreactivity (PSR sort gate)": "high polyreactivity"},
      {"sequence": "QVQLVESGGGLVQAGGSLRLSCAASGGIFAPYAMGWYRQAPGKERELVADITSDGGSTYYADSVKGRFTISRDNAKNTVYLQMNSLKPEDTAVYYCAAEQRYWWWGHPGDYWGQGTQVTVSS", "polyreactivity (PSR sort gate)": "low polyreactivity"},
      {"sequence": "QVQLVESGGGLVQAGGSLRLSCAASGGIFASNAMGWYRQAPGKERELVATITRGGSTNYADSVKGRFTISRDNAKNTVYLQLNSLKPEDTAVYYCAARFYSRAFWPAYYYWGQGTQVTVSS", "polyreactivity (PSR sort gate)": "high polyreactivity"},
      {"sequence": "QVQLVESGGGLVQAGGSLRLSCAASGGIFAYNAMGWYRQAPGKERELVATISSGVSTNYADSVKGRFTISRDNAKNTVYLPMNSLKPEDTAVYDCAAAIFITGYGSYGYWGQGTQVTVSS", "polyreactivity (PSR sort gate)": "low polyreactivity"},
      {"sequence": "QVQLVESGGGLVQAGGSLRLSCAASGGIFAYYGMGWYRQAPGKERELVAAIWIGGNTYYADSVKGRFTISRDNAKNTVYLQMNSLKPEDTAVYDCAAAGSAYYSTRKWDSYYYWGQGTQVTVSS", "polyreactivity (PSR sort gate)": "low polyreactivity"},
      {"sequence": "QVQLVESGGGLVQAGGSLRLSCAASGGIFAYYTMGLYTQDHGKERELVAAISTSSVNTYYADSVKGRFTISRDNAKHTVYLQMNSLKQEVNAVYYCAAEVYYGYDYCGQGTQVTVSS", "polyreactivity (PSR sort gate)": "low polyreactivity"},
      {"sequence": "QVQLVESGGGLVQAGGSLRLSCAASGGIFDNYAMGWYRQAPGKEREFVAVISSGGTTNYADSVKGRFTISRVNAKNTVYLQMNSLKPEDTAVYYCAADYDYRQGYDSVHLDYWGQGTQVTVSS", "polyreactivity (PSR sort gate)": "low polyreactivity"},
      {"sequence": "QVQLVESGGGLVQAGGSLRLSCAASGGIFDRYAMGWYRPAPGKERELVAGITWSGGRTYYADSVKGRFTISRDNAKNTVYLQMNSLKPEDTAVYYCAASLYTWTYQPVYYRDGYWGQGTQVTVSS", "polyreactivity (PSR sort gate)": "low polyreactivity"},
      {"sequence": "QVQLVESGGGLVQAGGSLRLSCAASGGIFDRYAMGWYRQAPGKERELVAAITSGGSTNYADSVKGRFTISRDNAKNTVYLQMNSLKPEDNAVYYCAAVESSYEAWYTYYYWGQGTQVTVSS", "polyreactivity (PSR sort gate)": "low polyreactivity"},
      {"sequence": "QVQLVESGGGLVQAGGSLRLSCAASGGIFESYAMGWYRQAPGKERELVASISSGGSTYYADSVKGRFTISRDNAKNTVYLQMNSLKPEDTAVYYCEYYYWGQGTQVTVSS", "polyreactivity (PSR sort gate)": "low polyreactivity"},
      {"sequence": "QVQLVESGGGLVQAGGSLRLSCAASGGIFFYNAMGWYRQAPGKERELVAAISTGGGRTYYADSVKGRFTISRDNAKNTVYLQMNSLKPEDTAVYYCAKDKQDYEYWGQGTQVTVSS", "polyreactivity (PSR sort gate)": "low polyreactivity"},
      {"sequence": "QVQLVESGGGLVQAGGSLRLSCAASGGIFGFNAMGWYRQAPGKERELVADISDGVRTNYADSVKGRFTISRDNAKNTVFLQMNSLKPEDTAVYYCATDGLFYVDGSWTLGYWGQGTQVTVSS", "polyreactivity (PSR sort gate)": "low polyreactivity"},
      {"sequence": "QVQLVESGGGLVQAGGSLRLSCAASGGIFGHNAMGWYRQAPGKERELVAAISYTGGSTYYADSVKGRFTISRDNAKNTVYLQMNSLKPEDTAVYYCNAVQRRFRYPFDYWGQGTQVTVSS", "polyreactivity (PSR sort gate)": "low polyreactivity"},
      {"sequence": "QVQLVESGGGLVQAGGSLRLSCAASGGIFGSYAMGWYRQAPGKERELVAAISWTGGSTYYADSVKGRFTISRDTAKNTVYLQMNSLKREDTAVYYCNADTYRRAQLRFNSWGQGTQVTVSS", "polyreactivity (PSR sort gate)": "low polyreactivity"},
      {"sequence": "QVQLVESGGGLVQAGGSLRLSCAASGGIFGTNDMGWYRQAPGKERELVAAITSDSGSTYYADSVKGRFTISRDNAKNTVYLQMNSLKPEDTAVYYCAAEDGPWFYRYGYWGQGTQVTVSS", "polyreactivity (PSR sort gate)": "low polyreactivity"},
      {"sequence": "QVQLVESGGGLVQAGGSLRLSCAASGGIFGYYAMGWYRQAPGKERELVAAITLSGGRTYYADSVKGRFTISRDNAKNTVYLQMNSLKPEDTAVYYCAAKGTRRGKERNYWGQGTQVTVSS", "polyreactivity (PSR sort gate)": "high polyreactivity"},
      {"sequence": "QVQLVESGGGLVQAGGSLRLSCAASGGIFGYYVMGWYRQAPGKERELVAAITSGGGTNYADSVKGRFTISRDNAKNTVYLQMNSLKPEDTAVYYCAAVYVRHRFGRFGYWGQGTQVTVSS", "polyreactivity (PSR sort gate)": "low polyreactivity"},
      {"sequence": "QVQLVESGGGLVQAGGSLRLSCAASGGIFIGYAMGWYRQAPGKERELVAAISYSGGSTYYADSVKGRFTISRDNAKNTVYFQMNSLKPEDTALYYCAAQVERKYRWFNSWGQGTQVTVSS", "polyreactivity (PSR sort gate)": "high polyreactivity"},
      {"sequence": "QVQLVESGGGLVQAGGSLRLSCAASGGIFKSYAMGWYRQAPGKERELVAAISASGGRTYYADSVKGRFTISRDNAKNTVYLQMNSLKPEDTAVYYCAAKVGYTTALNYWGQGTQVTVSS", "polyreactivity (PSR sort gate)": "high polyreactivity"},
      {"sequence": "QVQLVESGGGLVQAGGSLRLSCAASGGIFKYNAMGWYRQSPGKERELVAAIDTSGGSTYYADSVKGRFTISRDNAKNTVYLQMNSLKPEDTAVYYCAAELGLAQYYYWGQGTQVTVSS", "polyreactivity (PSR sort gate)": "low polyreactivity"},
      {"sequence": "QVQLVESGGGLVQAGGSLRLSCAASGGIFLVNDMGWYRQAPGKERELVAAITSGGGTYYADSVKGRFTISRDNAKNTVYLQMNSLKPEDTAVYYCARDTYRQIVSNESYGYWGQGTQVTVSS", "polyreactivity (PSR sort gate)": "low polyreactivity"},
      {"sequence": "QVQLVESGGGLVQAGGSLRLSCAASGGIFNSNAMGWYRQAPGKEREFVAAITRSGTSTYYADSVKGRFTISRDNAKNSVYLQMNSLKPEDTAVYYWAADYRYRRYRGHVSNLYYWGQGTQVTVSS", "polyreactivity (PSR sort gate)": "low polyreactivity"},
      {"sequence": "QVQLVESGGGLVQAGGSLRLSCAASGGIFNTYAMGWYRQAPGKEREFVAAISRRGGGTYYADSVKGRFTISRDNAKNTVYLQMNSLKPEDTAVYYCNADDKRGSRGYGSDHWGQGTQVTVSS", "polyreactivity (PSR sort gate)": "high polyreactivity"},
      {"sequence": "QVQLVESGGGLVQAGGSLRLSCAASGGIFPGNAMGWYRQAPGKERELVATISYSGGSTYYADSVKGRFTISRDYAKNTVYLQMNSLKPEDTAVYYCAARGYKPTRSRRTEYGYWGQGTQVTVSS", "polyreactivity (PSR sort gate)": "high polyreactivity"},
      {"sequence": "QVQLVESGGGLVQAGGSLRLSCAASGGIFPLYTMGWYRQATGKERELVASNTGSRASTYYADSVKGRFTISRDKAKNTVYLPMNSLNPEDTGVYDCKADVYVYSVTSHYPSYRLDYWGQGTQVTVAS", "polyreactivity (PSR sort gate)": "high polyreactivity"},
      {"sequence": "QVQLVESGGGLVQAGGSLRLSCAASGGIFPVNAMGWYRQAPGKERELVAAITWRGGRTYYADSVKGRFTISRDNSKNTVYLQMNSLKPEDTAVYYCAAYKGSSKYDYWGQGTQVTVSS", "polyreactivity (PSR sort gate)": "high polyreactivity"},
      {"sequence": "QVQLVESGGGLVQAGGSLRLSCAASGGIFPYYAMGWYRQAPGKERELVADISSGGSTYYADSVKGRFTISRDNAKNTVYFQMNSLKPEDTAVYYCAADAGQYFTYSGDDNHDYWGQGTQVTVSS", "polyreactivity (PSR sort gate)": "low polyreactivity"},
      {"sequence": "QVQLVESGGGLVQAGGSLRLSCAASGGIFPYYVMGWYRQAPGNEMELVAAINSGGTTYYADSVKGRFTISRDNAKNTVYLQMNILKPEDTAVYYCAAYYAGFGYNYWGQGTQVTVSS", "polyreactivity (PSR sort gate)": "low polyreactivity"},
      {"sequence": "QVQLVESGGGLVQAGGSLRLSCAASGGIFQGYAMGWYRQAPGKERELVAGITSRSGSTYYADSVKGRFTISRDNAKNTVYLQMNSLKPEDTAVYYCAVRVYRSYGYWGQGTQVTVSS", "polyreactivity (PSR sort gate)": "high polyreactivity"},
      {"sequence": "QVQLVESGGGLVQAGGSLRLSCAASGGIFRGNAMGWYRQAPGKERELVAAISSSGGSTYYADSVKGRFTISRDNAKNTVYLQMNSLKPEDTAVYYCAATRYSTRFGARGYWGQGTQVTVSS", "polyreactivity (PSR sort gate)": "high polyreactivity"},
      {"sequence": "QVQLVESGGGLVQAGGSLRLSCAASGGIFRINAMGWYRQAPGKERELVAAITSSVGSTYYADSVKGRFTISRDNAKNTVYLQMNSLKPEDTAVYYCAAVITRDAIVFSTEYDYWGQGTQVTVSS", "polyreactivity (PSR sort gate)": "low polyreactivity"},
      {"sequence": "QVQLVESGGGLVQAGGSLRLSCAASGGIFRPYAMGWYRQSPGKEREMVAAITYNGGSTYYADSVKGRFTISRDNAKNTVYLQMNSLKPEDTGVYYCAARARSSRTYHDDYWGQGTQVTVSS", "polyreactivity (PSR sort gate)": "high polyreactivity"},
      {"sequence": "QVQLVESGGGLVQAGGSLRLSCAASGGIFRYYAMGWYRQAPGKERELVAAISKSGGRTYYADSVKGRFTISRDNAKNTVYLQMNSLKPEDTAVYYCNAEYTWHSGYDYWGQGTQVTVSS", "polyreactivity (PSR sort gate)": "low polyreactivity"}
    ]}
  ]
}
